Key:
[1] = target: T1, ELAVL1/HuR (rHuR) (human, UniProt Q15717 1-326); test: AlphaScreen saturation binding; RNA titrated against 1 nM HuR; R2 0.97; Methods print 0.087±0.021 without unit; 25 mM HEPES pH 7.4, 100 mM NaCl, 0.1% BSA, room temperature, 30 min then 90 min with donor beads; details: protein: recombinant; tags: C-terminal Myc-His (vector section) or MYC/DDK (assay section, TP301562); label: biotin (BITEG); single strand
[2] = target: T1, ELAVL1/HuR (rHuR); test: AlphaScreen saturation binding; RNA titrated against 1 nM HuR; R2 0.91; Methods print 0.207±0.024 without unit; 25 mM HEPES pH 7.4, 100 mM NaCl, 0.1% BSA, room temperature, 30 min then 90 min with donor beads; details: protein: recombinant; tags: C-terminal Myc-His (vector section) or MYC/DDK (assay section, TP301562); label: biotin (BITEG); single strand

T1 sequence (Q15717 whole entry): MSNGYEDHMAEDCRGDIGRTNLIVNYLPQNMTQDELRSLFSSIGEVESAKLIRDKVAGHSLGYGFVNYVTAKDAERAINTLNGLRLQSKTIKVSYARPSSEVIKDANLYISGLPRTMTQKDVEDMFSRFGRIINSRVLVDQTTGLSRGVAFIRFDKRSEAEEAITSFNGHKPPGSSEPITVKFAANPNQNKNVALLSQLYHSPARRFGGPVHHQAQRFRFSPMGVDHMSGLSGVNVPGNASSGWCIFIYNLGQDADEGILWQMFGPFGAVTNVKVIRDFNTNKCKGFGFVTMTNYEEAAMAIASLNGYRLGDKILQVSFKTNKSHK

Binder | Kd [1] [nM] | Kd [2] [nM]
AUUAUUUAUUAUUUAUUUAUUAUUUA (ssRNA) [TNFalpha ARE probe] | 3.83 ± 0.69 | 
GUUUUAAAUGACUCAUAGGUCCCUGACAUUUAGUUGAUU (ssRNA) [SQSTM1/p62 ARE probe] |  | 30.9 ± 13.2
